Assay results reported in patent US20220144966A1 (SORRENTO THERAPEUTICS, published 2022).
Residue numbers refer to the chain shown, from its start. Values belong to the binder of their own block, whether it stands above or below them.

Legend:
[1] = biological target: T1, cynomolgus CD38 on cynomolgus monkey T cells (cynomolgus monkey, UniProt Q5VAN0 1-300); assay: flow cytometry on cynomolgus peripheral blood lymphocytes co-stained with anti-CD3 FITC
T1 construct: Native CD38 on peripheral blood lymphocytes from cynomolgus monkey blood, co-stained with anti-CD3 FITC; also called cynomolgus T cells

[2] = biological target: T2, recombinant cynomolgus CD38/His-tag (Sino Biological, catalog #90050-C08H) (cynomolgus monkey, UniProt Q5VAN0 44-300); assay: ELISA, His-tagged CD38 captured on Ni-NTA plate, antibody about 1 µg/mL
T2 construct: Bought protein; also called cynomolgus CD38 protein; not shown: His-tag

[3] = biological target: T3, recombinant mouse CD38/His-tag (Sino Biological, catalog #50191-M08H) (mouse, UniProt P56528 45-304); assay: ELISA, His-tagged CD38 captured on Ni-NTA plate, HRP anti-human Fc, OD 450 nm
T3 construct: Bought protein; also called murine CD38 protein; not shown: His-tag
T3 sequence: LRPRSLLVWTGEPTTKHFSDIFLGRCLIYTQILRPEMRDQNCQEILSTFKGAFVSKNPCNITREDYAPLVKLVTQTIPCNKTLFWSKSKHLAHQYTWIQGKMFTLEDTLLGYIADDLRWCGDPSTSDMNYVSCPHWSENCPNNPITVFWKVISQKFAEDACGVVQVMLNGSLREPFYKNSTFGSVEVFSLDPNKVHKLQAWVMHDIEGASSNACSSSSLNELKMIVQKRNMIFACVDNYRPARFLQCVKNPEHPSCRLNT

[4] = biological target: human CD38 on cells (Raji, Ramos, RPMI 8226, human T cells) (human, UniProt P28907 1-300); assay: flow cytometry on non-activated or activated human T cells, 10, 1 or 0.1 µg/mL

binding result [4]: binds
B3: variant antibody 3E10 (antibody, V domains shown)
VH: QVQLVESGGGLVKPGGSLRLSCAASGFTFSDDYMSWIRQAPGKGLEWVASVSNGRPTTYYADSVRGRFTISRDNAKNSLYLQMNSLRAEDTAVYYCAREDWGGEFTDWGRGTLVTVSS
VL: QAGLTQPPSASGTSGQRVTISCSGSSSNIGFHFVYWYQHLPGTAPKLLIYKNNQRPSGVPDRFSGSKSGNSASLAISGLRSEDEADYYCAAWDDSLSGYVFGSGTKVTVL
notes: it was captured by anti-human Fc in SPR

binding result [1]: binds
B4: variant antibody 3G3 (antibody, V domains shown)
VH: B3 VH with D100A, G102S, R110Q
VL: B3 VL with F31I, H32N

Second part, the binder before the results:

B1: parent antibody A2 (antibody, V domains shown)
VH: B3 VH
VL: B3 VL with F31I, H32N
notes: Only variable domains are tied to A2; also called A2-IgG1; anti-CD38-A2 parent antibody
binding result [1]: binds | binding result [2]: binds | binding result [3]: no binding (tested: about 1 µg/mL)

B2: variant antibody 3H10m1 (antibody, V domains shown)
VH: B3 VH with D100G, G102S, R110Q
VL: B3 VL
binding result [1]: binds
